Tests used:
293T/EPOR cells = biological target: T1, 293T/EPOR cells (Homo sapiens, UniProt P19235); experiment: Staining of 293T/EPOR cells with purified antibodies (flow cytometry); format: binding
T1 construct: expressed in transfected cells; host or cells: 293T cells expressing hEPOR
T1 sequence (P19235 25-508): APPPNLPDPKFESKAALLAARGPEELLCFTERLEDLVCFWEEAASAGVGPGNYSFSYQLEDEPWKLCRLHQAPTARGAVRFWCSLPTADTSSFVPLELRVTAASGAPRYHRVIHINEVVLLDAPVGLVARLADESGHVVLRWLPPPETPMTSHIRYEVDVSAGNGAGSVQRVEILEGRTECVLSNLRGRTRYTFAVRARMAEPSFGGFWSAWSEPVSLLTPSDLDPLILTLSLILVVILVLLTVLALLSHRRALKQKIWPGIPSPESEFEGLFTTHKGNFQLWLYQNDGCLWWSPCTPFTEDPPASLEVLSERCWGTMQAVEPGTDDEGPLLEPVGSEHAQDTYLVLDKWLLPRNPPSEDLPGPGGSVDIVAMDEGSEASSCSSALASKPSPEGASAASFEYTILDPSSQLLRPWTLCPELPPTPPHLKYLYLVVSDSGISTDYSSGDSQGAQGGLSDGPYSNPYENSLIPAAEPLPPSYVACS
Method: (§1) The purified antibodies were used to stain the human leukemia UT-7 cells, 293T/EPOR, 293T/CD131, and 293T/EPOR/CD131 cells to confirm antigen binding. The UT-7 cells were maintained in Roswell Park Memorial Institute (RPMI) with 10% Fetal Bovine Serum (FBS) and 5 ng/ml of recombinant human GM-CSF (Peprotech®, Cat #300-03). The 293T cells expressing hEPOR, hCD131, or both were maintained in Dulbecco's Modified Eagle Medium (DMEM) with 10% FBS. 1×10^6 cells/ml were incubated with purified hybridoma clones M2 and M41 at a 3-fold dilution series starting from 20 μg/ml for 30 minutes at 4° C. After washing, the cells were incubated with PE labeled secondary antibody and subjected to flowcytometric analysis. […] The binding profiles of the 293T/EPOR/CD131 cells are similar except the peak MFIs around 1500, half of that of the 293T/EPOR cells (FIG. 29B).

293T/EPOR/CD131 cells = biological target: T2, 293T/EPOR/CD131 cells (Homo sapiens, UniProt P19235); experiment: Staining of 293T/EPOR/CD131 cells with purified antibodies; format: binding
T2 construct: expressed in transfected cells; host or cells: 293T cells, lentiviral transduction
T2 sequence (P19235 25-508): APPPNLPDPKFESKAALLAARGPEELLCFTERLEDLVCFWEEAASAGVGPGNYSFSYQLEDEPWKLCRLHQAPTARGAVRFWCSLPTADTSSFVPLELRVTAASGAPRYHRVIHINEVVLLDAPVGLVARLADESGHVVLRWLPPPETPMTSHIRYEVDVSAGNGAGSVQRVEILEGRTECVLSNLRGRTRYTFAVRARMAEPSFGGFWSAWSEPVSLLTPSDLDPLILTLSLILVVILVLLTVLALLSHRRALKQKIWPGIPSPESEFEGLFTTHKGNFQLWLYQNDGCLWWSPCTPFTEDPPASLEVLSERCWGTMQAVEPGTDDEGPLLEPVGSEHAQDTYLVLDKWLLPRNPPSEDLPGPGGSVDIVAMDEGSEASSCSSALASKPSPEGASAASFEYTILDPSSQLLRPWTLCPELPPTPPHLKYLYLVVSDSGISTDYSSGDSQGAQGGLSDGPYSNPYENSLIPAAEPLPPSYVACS
Method: as §1

[1] = biological target: T3, EPO/EPOR interaction (EPOR-CD131-Fc and EPO) (Homo sapiens, UniProt P19235+P32927); experiment: Octet blocking of the EPO/EPOR interaction by hybridoma supernatants; format: binding; details: EPO 10 nM
T3 construct: Chimeric Fc fusion proteins of the extracellular domains of human EPOR and human CD131; purchased Sino Biological CT010-H02H
T3 sequence (P19235 25-250 limits assumed): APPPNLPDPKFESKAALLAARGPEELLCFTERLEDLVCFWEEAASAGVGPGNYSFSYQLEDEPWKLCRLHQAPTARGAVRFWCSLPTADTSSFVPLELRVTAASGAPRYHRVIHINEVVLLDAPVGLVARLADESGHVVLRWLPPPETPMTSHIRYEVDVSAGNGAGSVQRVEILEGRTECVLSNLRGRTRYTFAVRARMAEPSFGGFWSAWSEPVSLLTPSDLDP
T3 sequence (P32927 17-443 limits assumed): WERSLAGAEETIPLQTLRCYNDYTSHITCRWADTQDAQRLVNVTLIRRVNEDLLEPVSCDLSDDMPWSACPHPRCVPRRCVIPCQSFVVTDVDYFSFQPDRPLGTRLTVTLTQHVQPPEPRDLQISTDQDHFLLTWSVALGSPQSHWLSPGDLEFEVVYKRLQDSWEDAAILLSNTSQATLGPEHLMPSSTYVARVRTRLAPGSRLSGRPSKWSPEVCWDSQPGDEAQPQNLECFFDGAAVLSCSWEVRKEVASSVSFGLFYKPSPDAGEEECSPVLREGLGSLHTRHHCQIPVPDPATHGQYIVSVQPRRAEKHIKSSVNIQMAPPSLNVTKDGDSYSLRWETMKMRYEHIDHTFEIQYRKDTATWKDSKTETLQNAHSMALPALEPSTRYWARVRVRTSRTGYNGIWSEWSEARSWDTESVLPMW

EPOR (UT-7 cells) = biological target: T4, EPOR (UT-7 cells) (Homo sapiens, UniProt P19235); experiment: Flow-based phosphorylated Stat5 assay, blocking by anti-EPOR antibodies; format: cell-based; details: 20 μg/ml antibody; 0.1 μg/ml recombinant human EPO
T4 construct: endogenous in cells; host or cells: UT-7 human leukemia cells
T4 sequence (P19235 25-508): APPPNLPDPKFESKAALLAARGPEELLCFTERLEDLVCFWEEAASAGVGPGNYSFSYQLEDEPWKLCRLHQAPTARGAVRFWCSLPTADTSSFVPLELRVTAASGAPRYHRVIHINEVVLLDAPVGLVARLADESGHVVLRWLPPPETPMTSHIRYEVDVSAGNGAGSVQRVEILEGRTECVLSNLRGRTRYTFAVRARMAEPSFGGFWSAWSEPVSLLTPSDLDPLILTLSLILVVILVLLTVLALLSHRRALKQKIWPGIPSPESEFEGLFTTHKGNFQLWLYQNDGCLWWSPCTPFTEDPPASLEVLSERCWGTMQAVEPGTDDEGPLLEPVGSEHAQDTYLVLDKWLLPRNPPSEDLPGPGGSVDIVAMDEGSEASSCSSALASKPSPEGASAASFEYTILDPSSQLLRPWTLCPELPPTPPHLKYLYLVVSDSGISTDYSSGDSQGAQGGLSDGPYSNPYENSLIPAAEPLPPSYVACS
Method: EPOR activation leads to phosphorylation of Stat5. A flow-based assay on phosphorylated Stat5 was set up to test the blocking activities of anti-EPOR antibodies. The UT-7 cells were cultured without GM-CSF for overnight before the EPO stimulation. 3×10^6 cells/ml were incubated with 20 μg/ml of anti-EPOR for 15 minutes before stimulation with 0.1 μg/ml of recombinant human EPO (Peprotech®, Cat #100-64) for 10 minutes at 37° C. The cells were fixed immediately with fixation buffer (Cytofix™ buffer; BD Biosciences, Cat #554655) and permeabilized with methanol. After washing, cells were stained with PE labeled anti-Stat5 (BD Biosciences, Cat #612567) and subjected to flow cytometry analysis.

293T/CD131 cells = biological target: T5, 293T/CD131 cells (Homo sapiens, UniProt P32927); experiment: Staining of 293T/CD131 cells with purified antibodies; format: binding
T5 construct: expressed in transfected cells; host or cells: 293T cells, lentiviral transduction
T5 sequence (P32927 17-897): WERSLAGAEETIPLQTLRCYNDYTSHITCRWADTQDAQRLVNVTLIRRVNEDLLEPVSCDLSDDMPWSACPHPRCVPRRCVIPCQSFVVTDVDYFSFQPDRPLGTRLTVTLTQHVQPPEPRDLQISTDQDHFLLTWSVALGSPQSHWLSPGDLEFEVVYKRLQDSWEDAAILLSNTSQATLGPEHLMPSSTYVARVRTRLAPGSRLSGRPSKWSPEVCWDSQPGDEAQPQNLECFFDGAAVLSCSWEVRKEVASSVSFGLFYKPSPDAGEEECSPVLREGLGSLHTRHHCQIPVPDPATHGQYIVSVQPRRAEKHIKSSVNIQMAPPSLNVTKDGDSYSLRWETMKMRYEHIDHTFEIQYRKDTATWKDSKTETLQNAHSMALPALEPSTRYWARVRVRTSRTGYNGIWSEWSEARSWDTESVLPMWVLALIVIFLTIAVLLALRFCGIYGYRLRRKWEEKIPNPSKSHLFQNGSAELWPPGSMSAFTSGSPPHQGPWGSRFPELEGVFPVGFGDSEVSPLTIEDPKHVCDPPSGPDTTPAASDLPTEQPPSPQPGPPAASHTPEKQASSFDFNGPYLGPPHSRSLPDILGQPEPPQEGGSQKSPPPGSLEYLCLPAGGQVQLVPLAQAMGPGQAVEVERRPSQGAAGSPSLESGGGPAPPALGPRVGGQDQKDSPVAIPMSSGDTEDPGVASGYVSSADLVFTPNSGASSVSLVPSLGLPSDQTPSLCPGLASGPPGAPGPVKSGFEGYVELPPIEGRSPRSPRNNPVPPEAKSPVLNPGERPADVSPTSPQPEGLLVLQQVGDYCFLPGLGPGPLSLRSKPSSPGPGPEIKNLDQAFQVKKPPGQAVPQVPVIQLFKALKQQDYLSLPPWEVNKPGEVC
Method: as §1

binding to 293T/EPOR cells (293T/EPOR cells; 0.74 μg/ml purified antibody): lost most of the binding | binding to 293T/EPOR cells (293T/EPOR cells; 20 μg/ml purified antibody): robust binding activities | peak MFI (293T/EPOR/CD131 cells): around 1500 | blocking of the EPO/EPOR interaction [1]: partial blocking | blocking of Stat5 phosphorylation (EPOR (UT-7 cells)): partial blocking | staining of 293T/CD131 cells (293T/CD131 cells): did not stain
B1: EPORab - M41: hybridoma antibody clone, VH/VK in Table 10 (antibody, V domains shown)
VH: QVQLVESGGGLVQPGRSLRLSCAASGFTFDDYAIHWVRQAPGKGLEWVSGISYNSENIGYADSVKGRFTISRDNAKNSLYLQMNSLRSEDTALYYCAKDMFLTWFSSFDYWGQGTLVTVSS
VL: ETKLTQSPGTLSLSPGERTTLSCRASQSISNNYLAWYQQKPGQAPRLLIYRASTRATGIPDRFSGSGSGTDFTLTIRRLEPEDFAVYYCQRYGRSPLTFGGGTKVEIK

From patent US12637513B2, “Method of treating cancer by administering an inhibitor of erythropoietin receptor activity comprising either erythropoietin receptor or erythropoietin protein” (ImmunEdge, Inc., priority 2022, dated 2026)
